Experimental data as given in patent US20200071711, “MODULAR CONSTRUCTION OF SYNTHETIC GENE CIRCUITS IN MAMMALIAN CELLS USING MATHEMATICAL MODELING OF CLOSED LOOP TRANSCRIPTIONAL REPRESSORS” (Tsinghua University, published 2020).

Key:
TALER10 (synthetic) = experiment: cell_activity; conditions: for activity (mKate2/TagBFP): cognate 0.00
TALER9 (synthetic) = experiment: cell_activity; conditions: for activity (mKate2/TagBFP): cognate 0.01
TALER5 (synthetic) = experiment: cell_activity
TALER26 = target: T1, TALER26 (synthetic, UniProt P14727 SEQ:263-1244); experiment: cell_activity; HEK293, two sites flanking CMVmini; conditions: tags: EYFP-2A upstream, SV40 NLS
T1 chain: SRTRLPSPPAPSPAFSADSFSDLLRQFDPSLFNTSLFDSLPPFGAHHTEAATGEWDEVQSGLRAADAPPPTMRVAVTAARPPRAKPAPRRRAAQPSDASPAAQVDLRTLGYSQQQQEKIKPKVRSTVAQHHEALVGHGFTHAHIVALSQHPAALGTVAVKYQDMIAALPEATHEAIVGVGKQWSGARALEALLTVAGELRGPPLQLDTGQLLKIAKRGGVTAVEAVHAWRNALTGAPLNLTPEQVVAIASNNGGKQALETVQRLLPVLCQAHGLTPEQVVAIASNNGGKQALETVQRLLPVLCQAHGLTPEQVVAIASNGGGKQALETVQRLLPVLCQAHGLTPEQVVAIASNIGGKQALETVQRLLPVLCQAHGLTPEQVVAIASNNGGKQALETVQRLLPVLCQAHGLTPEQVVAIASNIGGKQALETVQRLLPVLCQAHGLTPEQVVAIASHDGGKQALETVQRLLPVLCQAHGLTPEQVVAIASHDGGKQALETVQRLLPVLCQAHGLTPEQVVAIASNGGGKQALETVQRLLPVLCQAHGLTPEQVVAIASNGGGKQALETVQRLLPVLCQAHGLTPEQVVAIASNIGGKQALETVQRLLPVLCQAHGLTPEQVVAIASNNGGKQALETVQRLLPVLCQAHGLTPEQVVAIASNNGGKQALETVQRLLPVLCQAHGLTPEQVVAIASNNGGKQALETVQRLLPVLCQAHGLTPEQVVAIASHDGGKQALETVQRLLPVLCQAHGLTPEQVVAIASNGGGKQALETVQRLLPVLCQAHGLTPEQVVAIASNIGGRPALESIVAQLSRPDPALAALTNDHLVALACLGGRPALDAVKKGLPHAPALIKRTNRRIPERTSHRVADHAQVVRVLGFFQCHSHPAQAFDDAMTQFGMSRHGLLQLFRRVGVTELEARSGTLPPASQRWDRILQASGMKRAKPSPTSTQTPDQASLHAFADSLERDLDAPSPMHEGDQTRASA

TALER24 = target: T2, TALER24 (synthetic, UniProt P14727 SEQ:1-806); experiment: cell_activity; HEK293, two sites flanking CMVmini; conditions: tags: EYFP-2A upstream, SV40 NLS
T2 chain: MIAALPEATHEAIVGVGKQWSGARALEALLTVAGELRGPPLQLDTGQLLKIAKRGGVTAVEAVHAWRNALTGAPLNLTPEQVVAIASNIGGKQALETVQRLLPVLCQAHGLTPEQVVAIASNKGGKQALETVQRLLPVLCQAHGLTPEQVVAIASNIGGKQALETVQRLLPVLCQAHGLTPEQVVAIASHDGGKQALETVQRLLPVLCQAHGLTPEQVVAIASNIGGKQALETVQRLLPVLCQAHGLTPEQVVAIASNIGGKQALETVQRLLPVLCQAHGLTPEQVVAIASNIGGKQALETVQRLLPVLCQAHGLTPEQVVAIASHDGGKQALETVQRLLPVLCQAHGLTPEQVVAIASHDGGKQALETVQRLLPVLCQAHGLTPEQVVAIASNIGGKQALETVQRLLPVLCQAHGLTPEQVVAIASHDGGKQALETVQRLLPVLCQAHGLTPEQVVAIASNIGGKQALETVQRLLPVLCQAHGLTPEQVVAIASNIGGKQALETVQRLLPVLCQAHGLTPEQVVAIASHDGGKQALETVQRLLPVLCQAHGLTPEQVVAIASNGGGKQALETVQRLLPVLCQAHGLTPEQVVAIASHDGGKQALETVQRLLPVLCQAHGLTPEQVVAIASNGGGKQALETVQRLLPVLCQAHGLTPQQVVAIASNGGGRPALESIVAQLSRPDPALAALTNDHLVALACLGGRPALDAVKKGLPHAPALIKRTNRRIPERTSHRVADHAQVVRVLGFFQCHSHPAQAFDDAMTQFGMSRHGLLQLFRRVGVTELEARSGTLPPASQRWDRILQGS

[1] = HEK293, two sites flanking CMVmini

With “TGTCGTCTTCTGCACTTAT (double strand) [T21 site]” the activity (mKate2/TagBFP) (TALER10 (synthetic)) was 1.06 and the activity (mKate2/TagBFP) (TALER9 (synthetic)) was 2.95.

Molecule “TATAGAACCGATCCTCCCATT (double strand) [T9 site]” has an activity (mKate2/TagBFP) (TALER10 (synthetic)) of 0.84 and a binding signal (fold repression) (TALER9 (synthetic); [1]) of 636.

Molecule “TATTTCGACGCTCATTCT (double strand) [T12 site]” has an activity (mKate2/TagBFP) (TALER10 (synthetic)) of 1.04 and an activity (mKate2/TagBFP) (TALER9 (synthetic)) of 2.38.

With “TACTGAATAATCAACACTGAATTCTAGGCGTGTACGGTGGGAGGCCTATATAAGCAGAGCTCGTTTAGTGAACCGTCAGATCGCCTCGAGTACTGAATAATCAACACTTACTGAATAATCAACACTTACTGAATAATCAACACT (double strand) [T5-CMVmini-T5x3]” the binding signal (fold repression) (TALER5 (synthetic); HEK293, three 3' sites (15.43 with one)) was 281.

“TACGACTCACTATA (double strand) [T1 site]” was tested, and the activity (mKate2/TagBFP) (TALER10 (synthetic)) was 2.51 and the activity (mKate2/TagBFP) (TALER9 (synthetic)) was 5.14.

With “TACTGAATAATCAACACT (double strand) [T5 site]” the binding signal (fold repression) (TALER5 (synthetic); [1]) was 17.9.

“TACCCCTCTCCGCTTCT (double strand) [T14 site]” showed an activity (mKate2/TagBFP) (TALER10 (synthetic)) of 1.46 and an activity (mKate2/TagBFP) (TALER9 (synthetic)) of 4.42.

With “TTTATTCCCTGACA (double strand) [T35 site]” the activity (mKate2/TagBFP) (TALER10 (synthetic)) was 1.03 and the activity (mKate2/TagBFP) (TALER9 (synthetic)) was 2.15.

Work on “TCCCGGAAGCCGATGCT (double strand) [T13 site]” yielded an activity (mKate2/TagBFP) (TALER10 (synthetic)) of 0.93 and an activity (mKate2/TagBFP) (TALER9 (synthetic)) of 2.17.

For “TCCGCCTCCCTCTC (double strand) [T29 site]”, the activity (mKate2/TagBFP) (TALER10 (synthetic)) was 1.19 and the activity (mKate2/TagBFP) (TALER9 (synthetic)) was 2.94.

“TACCTCATCAGGAACATGTT (double strand) [T10 site]” was tested, and the binding signal (fold repression) (TALER10 (synthetic); [1]) was 1310 and the activity (mKate2/TagBFP) (TALER9 (synthetic)) was 2.54.

“TGCCCTCGGCCATCAGAAGGATCTT (double strand) [T16 site]” gave an activity (mKate2/TagBFP) (TALER10 (synthetic)) of 1.66 and an activity (mKate2/TagBFP) (TALER9 (synthetic)) of 3.97.

B1: T26 site (dsDNA)
DNA 1: TGGTAGACCTTAGGGCTA
DNA 2: TAGCCCTAAGGTCTACCA
Molecule B1 has a binding signal (TALER26) of 148 fold repression.

B2: T24 site (dsDNA)
DNA 1: TAGACAAACCACAACTCTT
DNA 2: AAGAGTTGTGGTTTGTCTA
B2 was tested, and the binding signal (TALER24) was 10.9 fold repression.
